Experimental data taken from patent publication US11630109B2, “Sensors and assays for ubiquitin or ubiquitin-like proteins” (Colorado State University Research Foundation, priority 2013, dated 2023).

Legend:
Format in all cases: binding
Nedd8 [1] = target: T1, Nedd8 (Homo sapiens, UniProt Q15843); assay: Fluorescence intensity titration of Atto532-tIV with free Nedd8
Description: FIG. 22 provides a graph showing that Atto532-tagged tIV L1 Cys binds to free Nedd8 with a Kd of several μM.
Increasing concentrations of free Nedd8 protein were added to Atto532-tIV, and the fluorescence intensity was measured (see FIG. 22).

Nedd8 [2] = target: T1, Nedd8; assay: tSR competition assay with Atto532-tagged ubiquitin, relative fluorescence; conditions: 5 nM Atto532-tagged ubiquitin protein and 600 nM tSR
Description: (§1) A competition assay was performed where unconjugated free ubiquitin proteins, different kinds of conjugated free ubiquitin proteins, and Nedd8 were added to mixtures of 5 nM Atto532-tagged ubiquitin protein and 600 nM tSR. The relative fluorescence was measured. […] The Ki values for unconjugated ubiquitin proteins and the different kinds of conjugated free ubiquitin proteins are provided in a table (bottom).
as §1, with “The binding affinities of tSR were determined (see FIG. 25). A competition” for “A competition”, “performed where free ubiquitin” for “performed where unconjugated free ubiquitin”, “a table (see FIG. 25).” for “a table (bottom).”

Nedd8 [3] = target: T1, Nedd8; assay: Direct titration of Alexa488-tagged tSR, relative fluorescence; conditions: 10 nM Alexa488 tSR
Description: (§2) The relative fluorescence intensity changes of Alexa488-tagged tSR when ubiquitin is added is shown (middle). The relative fluorescence of 10 nM Alexa488 tSR when different concentrations of unconjugated ubiquitin protein, conjugated ubiquitin protein, or Nedd8 are added (right).
(§3) The tSR can be used for direct titration experiments (see FIG. 26). The relative fluorescence intensity changes of Alexa488-tagged tSR when ubiquitin is added at varying concentrations. The relative fluorescence of 10 nM Alexa488 tSR was measured with different concentrations of unconjugated ubiquitin protein, conjugated ubiquitin protein, or Nedd8.

[4] = system: conjugated ubiquitin protein; assay: as above; conditions: 10 nM Alexa488 tSR
Description: as §2, §3

[5] = target: unconjugated ubiquitin protein (Homo sapiens, UniProt P0CG48); assay: as above; conditions: 10 nM Alexa488 tSR
Description: as §2, §3

T1 sequence (Q15843 1-76 limits assumed): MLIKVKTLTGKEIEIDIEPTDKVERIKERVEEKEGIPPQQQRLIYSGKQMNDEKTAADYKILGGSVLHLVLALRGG

B1: tIV: chimeric protein with two ubiquitin binding domains, IsoT ZnF and Vps27 UIM, SEQ ID NO: 5 (protein)
chain: MGSSHHHHHHSSGLVPRGSHMKQEVQAWDGEVRQVSKHAFSLKQLDNPARIPPSGWKCSKCDMRENLWLNLTDGSILCGRRYFDGSGGNNHAVEHYRETGYPLAVKLGTITPDGADVWSYDEDDMVLDPSLAEHLSHFGIDMLKMQKGSCAAAEEAELDLKAAIQESLREA
modifications: tIV - Atto532-tagged chimeric polypeptide comprising two binding domains that bind ubiquitin in non-overlapping regions
binding affinity for free Nedd8 protein compared with conjugated Nedd8 protein (Nedd8 [1]; predicted from binding interactions of Vps27UIM and Nedd8): greater binding affinity

B2: tSR: universal chimeric polypeptide sensor, SEQ ID NO: 7: S5a UIM and Ruz domains connected by a linker (protein)
chain: MPSSHHHHHHSSGLVPRGSHMTEEEQIAYAMQMSLREAGGGSDLLCKKGCGYYGNPAWQGFCSKCWREEAHKCAAERAAAE
modifications: tSR - chimeric polypeptide comprising two binding domains that bind ubiquitin in non-overlapping regions
specificity against Nedd8 (Nedd8 [2]): specificity against Nedd8

B3: Alexa488-tagged tSR: tSR tagged with Alexa488 fluorophore (conjugate)
chain: MPSSHHHHHHSSGLVPRGSHMTEEEQIAYAMQMSLREAGGGSDLLCKKGCGYYGNPAWQGFCSKCWREEAHKCAAERAAAE
binding of Nedd8 protein (Nedd8 [3]): but not Nedd8 protein
binding of conjugated ubiquitin protein [4]: detected
binding of unconjugated ubiquitin protein [5]: detected

B4: Atto532-tagged tIV L1 Cys: tIV L1 Cys (SEQ ID NO: 5) tagged with Atto532 fluorophore at the linker Cys (conjugate)
chain: MGSSHHHHHHSSGLVPRGSHMKQEVQAWDGEVRQVSKHAFSLKQLDNPARIPPSGWKCSKCDMRENLWLNLTDGSILCGRRYFDGSGGNNHAVEHYRETGYPLAVKLGTITPDGADVWSYDEDDMVLDPSLAEHLSHFGIDMLKMQKGSCAAAEEAELDLKAAIQESLREA
modifications: Atto532 fluorophore on linker Cys; tIV - Atto532-tagged chimeric polypeptide comprising two binding domains that bind ubiquitin in non-overlapping regions
KD for Nedd8 (Nedd8 [1]; free Nedd8 added to Atto532-tIV, fluorescence intensity): several
